Results from article PMC9271601 (Structure (London, England : 1993), 2022).

Columns and labels:
H7 (SH13) HA probe = H7 (SH13) HA probe (Influenza A virus A/Shanghai/02/2013 …, UniProt R4NN21, strain, biotin (biotin protein ligase, AviTag)); test: flow cytometry on cells
[1] = target: H9N2 A/Hong Kong/1073/99 hemagglutinin trimer, wild type (Influenza A virus A/Hong Kong/1073/99 …, UniProt Q9ICY5, strain); test: BLI

B1: 1D12 B cell receptor on the donor's B cell (antibody, V domains shown)
VH: QLVQSGAEVKKPGASVKVSCKASGYTFTGYYLHWVRQAPGQGLEWMGRINPDTGGTNYAQKFQGRVSMTRDMSISTHYMELSRLTSDDTAVYYCATKRGAVTAMVYYYFYGMDVWGQGTTVTVSS
VL: DIVMTQSPLSLSVTPGEPASISCRSSHSLLHLNGYNYLDWYLQKPGQSPQLLIYLGSNRASGVPDRFSGSGSGTDFTLKISRVEAEDVGIYYCMQALRTPPGLTFGGGTKVDIK
binding result (H7 (SH13) HA probe): binds

B2: 315–19-1D12 Fab (Fab, V domains shown)
VH: QLVQSGAEVKKPGASVKVSCKASGYTFTGYYLHWVRQAPGQGLEWMGRINPDTGGTNYAQKFQGRVSMTRDMSISTHYMELSRLTSDDTAVYYCATKRGAVTAMVYYYFYGMDVWGQGTTVTVSS
VL: DIVMTQSPLSLSVTPGEPASISCRSSHSLLHLNGYNYLDWYLQKPGQSPQLLIYLGSNRASGVPDRFSGSGSGTDFTLKISRVEAEDVGIYYCMQALRTPPGLTFGGGTKVDIK
binding result [1]: binds
